Laboratory results published in the supplement of paper PMC6757056.
± gives the standard deviation of the averaged measurements.

B1: library; a variant is named by its letters at N, in order (parent)
chain: GCUGUCACCGGUGCUUGGUACGUUAUAUUCAGCCGGUCUGAUGAGUCUNNNNNNAGACGAAACAGC

How the values were obtained:
[1] = variants of: B1; test: FACS-Seq fitted mean relative fluorescence mCherry/BFP without ligand (log10 relative fluorescence); HEK293T overexpressing SLC46A1; higher = higher reporter protein expression; conditions: without (6R,S)-folinic acid; ligand present: no
Procedure, shortened: (§1)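 Fluorescence figures are normalized fitted normal means of sequenced bin counts. Enriched, lentivirally transduced HEK293T libraries with a ribozyme-switch mCherry reporter and EF1α-BFP were held 48 h with or without ligand, then sorted into 6 mCherry/BFP bins. PCR-amplified, barcoded genomic DNA from each bin was sequenced on MiSeq. Means of log10(mCherry/BFP) were scaled to five spiked-in control ribozymes.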

[2] = variants of: B1; test: normalized RNA/DNA level without ligand (relative to sTRSVctl = 100) (log10 (% of sTRSVctl)); HEK293T overexpressing SLC46A1; higher = less ribozyme self-cleavage, higher mRNA level; conditions: without (6R,S)-folinic acid; ligand present: no
Protocol: (§2)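 Hammerhead (sTRSV) ribozyme switch libraries with a ligand aptamer grafted on stem I and a randomized N4-6 loop II, cloned into the 3' UTR of mCherry and transiently transfected into HEK293T cells; RNA-Seq 72 h post transfection with ligand added 1 h before transfection; RNA read count / plasmid DNA read count normalized to the non-cleaving sTRSVctl (x100), log10; sequences with >100 DNA reads. FACS-Seq: lentiviral library sorted into 6 bins after 48 h ligand, log-normal fit mean of mCherry/BFP scaled to controls. Printed sequences are partial switch sequences.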

[3] = variants of: B1; test: FACS-Seq fitted mean relative fluorescence mCherry/BFP with ligand (log10 relative fluorescence); HEK293T overexpressing SLC46A1; ligand concentration (+) FACS-Seq: 6 mM; higher = higher reporter protein expression; conditions: with (6R,S)-folinic acid; ligand present: yes
Procedure, shortened: as §1

[4] = variants of: B1; test: normalized RNA/DNA level with ligand (relative to sTRSVctl = 100) (log10 (% of sTRSVctl)); HEK293T overexpressing SLC46A1; ligand concentration (+) RNA-Seq: 6 mM; higher = less ribozyme self-cleavage, higher mRNA level; conditions: with (6R,S)-folinic acid; ligand present: yes
Protocol: as §2

Row | Variant | FACS-Seq fitted mean (log10) [1] | normalized RNA/DNA level without ligand (log10) [2] | FACS-Seq fitted mean (log10) [3] | normalized RNA/DNA level with ligand (log10) [4]
1 | ACAAUG | 0.173 ± 0.021 | 1.96 ± 0.02 | 0.372 ± 0.11 | 2.03 ± 0.033
2 | ACAAUA | 0.486 ± 0.011 | 1.981 ± 0.0063 | 0.509 ± 0.16 | 2.004 ± 0.02
3 | GAUAAC | 0.223 ± 0.036 | 1.972 ± 0.012 | 0.5 ± 0.022 | 2.01 ± 0.014
4 | GAUAAU | 0.0792 ± 0.026 | 1.97 ± 0.02 | 0.23 ± 0.02 | 2.01 ± 0.037
5 | GAUGCG | 0.444 ± 0.16 | 1.941 ± 0.011 | 0.693 ± 0.15 | 2.02 ± 0.07
6 | GAUGCA | 0.5601 ± 0.0038 | 2.009 ± 0.0054 | 0.5189 ± 0.004 | 2.04 ± 0.035
7 | UAUAGG | 0.0298 ± 0.024 | 1.58 ± 0.029 | 0.514 ± 0.24 | 1.92 ± 0.02
8 | UAUAGC | 0.469 ± 0.011 | 1.943 ± 0.018 | 0.395 ± 0.19 | 1.98 ± 0.036
9 | UAUAGA | 0.233 ± 0.082 | 1.911 ± 0.003 | 0.417 ± 0.064 | 1.989 ± 0.013
10 | GCAAGG | 0.437 ± 0.041 | 1.957 ± 0.007 | 0.376 ± 0.13 | 2.04 ± 0.049
11 | GCAAGA | 0.477 ± 0.0057 | 2.022 ± 0.0049 | 0.457 ± 0.12 | 2.04 ± 0.024
12 | UCAAGC | 0.599 ± 0.019 | 2.071 ± 0.0039 | 0.553 ± 0.17 | 2.05 ± 0.04
13 | UCAAGA | 0.185 ± 0.046 | 1.9951 ± 0.0012 | 0.305 ± 0.13 | 2.028 ± 0.014
14 | GCAACU | 0.431 ± 0.019 | 2.0623 ± 0.00038 | 0.667 ± 0.22 | 2.06 ± 0.029
15 | GAUUUA | 0.4 ± 0.091 | 2.024 ± 0.019 | 0.664 ± 0.15 | 2.03 ± 0.021
16 | ACAACA | 0.197 ± 0.026 | 2.032 ± 0.003 | 0.27 ± 0.24 | 2.03 ± 0.04
17 | AAUGAA | 0.442 ± 0.1 | 1.956 ± 0.0073 | 0.46 ± 0.055 | 2 ± 0.029
18 | AAUGAG | 0.455 ± 0.051 | 1.778 ± 0.0047 | 0.7222 ± 0.0013 | 1.97 ± 0.021
19 | GAUGUG | 0.409 ± 0.09 | 1.889 ± 0.0086 | 0.576 ± 0.27 | 2.02 ± 0.021
20 | GAUGUC | 0.311 ± 0.066 | 2.021 ± 0.013 | 0.392 ± 0.21 | 1.991 ± 0.014
21 | GAUGUA | 0.1 ± 0.0045 | 1.937 ± 0.004 | 0.322 ± 0.11 | 2.001 ± 0.02
22 | GAUGUU | 0.317 ± 0.026 | 1.976 ± 0.0069 | 0.463 ± 0.066 | 2.01 ± 0.031
23 | ACAGCA | 0.531 ± 0.039 | 2.015 ± 0.012 | 0.555 ± 0.17 | 2.04 ± 0.037
24 | AAUCAG | 0.0995 ± 0.041 | 1.969 ± 0.0032 | 0.228 ± 0.25 | 2.02 ± 0.045

Row | Variant | FACS-Seq fitted mean (log10) [1] | normalized RNA/DNA level without ligand (log10) [2] | FACS-Seq fitted mean (log10) [3] | normalized RNA/DNA level with ligand (log10) [4]
25 | CAUGAA | -0.00657 ± 0.027 | 1.954 ± 0.014 | -0.0505 ± 0.07 | 1.98 ± 0.045
26 | CCACAA | 0.496 ± 0.0082 | 1.969 ± 0.0044 | 0.422 ± 0.22 | 1.96 ± 0.016
27 | GAUACG | 0.356 ± 0.069 | 1.9665 ± 0.00032 | 0.274 ± 0.0064 | 2 ± 0.0056
28 | GAUACA | 0.251 ± 0.036 | 1.974 ± 0.0043 | 0.585 ± 0.09 | 1.98 ± 0.047
29 | UAUUGA | 0.265 ± 0.09 | 1.91 ± 0.025 | 0.57 ± 0.12 | 1.985 ± 0.003
30 | UAUUGG | -0.0117 ± 0.013 | 1.59 ± 0.037 | 0.338 ± 0.024 | 1.91 ± 0.034
31 | CAUAUG | 0.419 ± 0.028 | 2.026 ± 0.0042 | 0.496 ± 0.28 | 2.01 ± 0.023
32 | CAUAUC | -0.161 ± 0.056 | 2.078 ± 0.0032 | -0.426 ± 0.011 | 2.03 ± 0.034
33 | CAUAUU | 0.434 ± 0.11 | 1.982 ± 0.0059 | 0.246 ± 0.17 | 1.98 ± 0.025
34 | GAUUCU | 0.0461 ± 0.007 | 2.015 ± 0.0091 | -0.0821 ± 0.066 | 2.04 ± 0.042
35 | GAUUCA | 0.437 ± 0.14 | 1.985 ± 0.0095 | 0.333 ± 0.013 | 2.01 ± 0.025
36 | UCAAUG | 0.183 ± 0.076 | 1.814 ± 0.0085 | 0.195 ± 0.15 | 2 ± 0.037
37 | ACACGA | 0.206 ± 0.039 | 1.9971 ± 0.00061 | 0.242 ± 0.26 | 2.02 ± 0.059
38 | UAUAAU | 0.283 ± 0.048 | 1.941 ± 0.0058 | 0.412 ± 0.033 | 1.996 ± 0.016
39 | UAUAAG | 0.158 ± 0.15 | 1.688 ± 0.0045 | 0.476 ± 0.26 | 1.93 ± 0.027
40 | AAUGCG | 0.217 ± 0.13 | 1.839 ± 0.018 | 0.405 ± 0.11 | 2 ± 0.03
41 | AAUGCA | 0.514 ± 0.0055 | 1.99 ± 0.03 | 0.45 ± 0.072 | 2.02 ± 0.034
42 | UAUCAG | 0.285 ± 0.25 | 1.84 ± 0.024 | 0.328 ± 0.29 | 1.95 ± 0.025
43 | UAUCAU | 0.312 ± 0.043 | 1.954 ± 0.0086 | -0.0472 ± 0.12 | 1.99 ± 0.041
44 | UAUCAA | 0.142 ± 0.016 | 1.957 ± 0.019 | 0.277 ± 0.084 | 2 ± 0.053
45 | CCAGAU | 0.213 ± 0.0078 | 2.003 ± 0.0083 | 0.000255 ± 0.023 | 2.01 ± 0.027
46 | AAUAUG | 0.207 ± 0.053 | 1.895 ± 0.0025 | 0.137 ± 0.061 | 1.99 ± 0.034
47 | AAUAUU | 0.567 ± 0.082 | 1.981 ± 0.011 | 0.295 ± 0.01 | 1.99 ± 0.029
48 | AAUAUA | 0.602 ± 0.02 | 1.95 ± 0.0055 | 0.4362 ± 0.00063 | 1.99 ± 0.039

Row | Variant | FACS-Seq fitted mean (log10) [1] | normalized RNA/DNA level without ligand (log10) [2] | FACS-Seq fitted mean (log10) [3] | normalized RNA/DNA level with ligand (log10) [4]
49 | AAUAUC | 0.448 ± 0.061 | 2.03 ± 0.042 | 0.348 ± 0.12 | 2.02 ± 0.048
50 | AAUGUC | -0.0892 ± 0.053 | 2.075 ± 0.01 | -0.24 ± 0.095 | 2.037 ± 0.0021
51 | GAUAGA | 0.454 ± 0.051 | 1.959 ± 0.0082 | 0.537 ± 0.22 | 2 ± 0.021
52 | GAUAGC | 0.145 ± 0.061 | 1.962 ± 0.017 | 0.257 ± 0.081 | 2.022 ± 0.015
53 | GAUAGG | 0.0382 ± 0.037 | 1.921 ± 0.013 | 0.234 ± 0.004 | 2.01 ± 0.022
54 | GAUAGU | 0.846 ± 0.085 | 1.963 ± 0.018 | 0.563 ± 0.078 | 2 ± 0.022
55 | CAUUUU | 0.383 ± 0.084 | 1.982 ± 0.015 | 0.284 ± 0.047 | 1.99 ± 0.043
56 | CAUUUG | 0.428 ± 0.042 | 2.05 ± 0.0064 | 0.431 ± 0.069 | 2.06 ± 0.025
57 | UAUGAG | 0.159 ± 0.026 | 1.609 ± 0.0041 | 0.709 ± 0.075 | 1.9 ± 0.045
58 | UAUGAC | 0.193 ± 0.17 | 1.971 ± 0.01 | 0.413 ± 0.083 | 2 ± 0.053
59 | UAUGAU | 0.263 ± 0.038 | 1.911 ± 0.013 | 0.486 ± 0.099 | 1.97 ± 0.027
60 | UAUGCG | 0.276 ± 0.043 | 1.7391 ± 0.00075 | 0.61 ± 0.063 | 1.961 ± 0.014
61 | UAUGCU | -0.0167 ± 0.051 | 2.007 ± 0.0048 | 0.129 ± 0.27 | 2.04 ± 0.029
62 | AAUAAG | 0.271 ± 0.2 | 1.9 ± 0.024 | 0.323 ± 0.13 | 1.98 ± 0.038
63 | AAUAAC | 0.221 ± 0.049 | 1.979 ± 0.0049 | 0.377 ± 0.048 | 1.99 ± 0.035
64 | AAUAAU | 0.5328 ± 0.0041 | 1.968 ± 0.0071 | 0.56 ± 0.14 | 2.003 ± 0.011
65 | GAUGGU | 0.536 ± 0.091 | 2.004 ± 0.0039 | 0.622 ± 0.045 | 2.02 ± 0.049
66 | GAUGGC | 0.227 ± 0.13 | 1.967 ± 0.019 | 0.542 ± 0.2 | 2.01 ± 0.021
67 | GCACAA | -0.45 ± 0.18 | 1.9848 ± 8e-05 | -1.15 ± 0.17 | 2 ± 0.039
68 | GCACAC | -0.179 ± 0.1 | 1.966 ± 0.0048 | -0.0397 ± 0.2 | 2 ± 0.037
69 | GAUUGA | 0.422 ± 0.12 | 1.999 ± 0.019 | 0.519 ± 0.3 | 2.02 ± 0.048
70 | GAUUGU | 0.143 ± 0.011 | 1.995 ± 0.0038 | 0.365 ± 0.11 | 2.024 ± 0.0059
71 | UCAGAU | 0.523 ± 0.0091 | 1.95 ± 0.0075 | 0.201 ± 0.13 | 2.013 ± 0.011
